Assay results published in the supplement of paper PMC12764529.
± gives the half width of the 95% confidence interval.

Assay: folding stability dG unfold (combined trypsin and chymotrypsin); higher = more stable
Procedure: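 Folding stability of de novo designed mini-proteins (<80 aa, no Cys; designed by TrROS, TrMRF, ProteinMPNN and the joint model) was measured by cDNA display proteolysis with trypsin and chymotrypsin. Each protease was used at 11 concentrations in a threefold dilution series plus a no-protease condition. K50 was inferred by Bayesian fitting of sequencing counts, and dG unfold was derived against a sequence-predicted unfolded-state K50 (Tsuboyama et al. method). Sequences shown include variable-length N-terminal GS-type padding (SAGGSAGG...) inside a display construct carrying a PA tag. Rows were kept only if the AF2 dimer inter-PAE was >15, to exclude likely homo-oligomers.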

Sequence	folding stability dG unfold
SAGGMNMYLRVEQYRKKPNGEPEKRELSIPFPPNEPVEEIADELQKDNPYIKVEIYSPGTGKQQTITISAGG [r13_663_TrROS]	< -1 kcal/mol
SAGGSASSMVSSLPLKVDPKEKARAEAEKLAEEKLEEEPDLEGTVEVELEMETPDKKIKVRLEIKKSAGGSA [r15_729_JUSTAS]	< -1 kcal/mol
SAGGSAGGSAGGFVGTLKDYPKILKAAKEVGLKVGKIDPKNNKIYVDPSNPEKLKKAIESSAGGSAGGSAGG [r7_285_TrMRF]	< -1 kcal/mol
SAGGSAGGSAGGMTIRVVPVEITPDSSGVLRRDIEEVAAANPDAEVLETTPTSVLVRYKRSAGGSAGGSAGG [r11_771_JUSTAS]	< -1 kcal/mol
SAGGPKIHIDRGPDYIRVKINGPDGKPIAPSTIPYEDPDNGEEEEVKIPIEELAQESGFPIEIEPYDSAGGS [r16_778_TrROS]	< -1 kcal/mol
SAGGSAGGSNWTIKVNIVEKPNGKKYIPITMRPPNGNTREGPMPADEIKDRFGMPAEDIAKAISAGGSAGGS [r20_235_TrROS]	< -1 kcal/mol
SAGGSADMPMLPIEEIIDQLKEAKEANPNKKRTIEIPYPDGMPMQIEIDNDGKTKIEHPDGQWITISAGGSA [r15_73_TrROS]	< -1 kcal/mol
SAGGSATIEEILKEIAEPHGAEPEVDPNSGVIEVDFPNGQEHTINVDDGKPIKIKYNPPGRMYIEISAGGSA [r15_256_TrROS]	< -1 kcal/mol
SAGGSAGGSAMWVRDIADELRKEGKPVKIEMRNPNGKEKEYTIKPGEPLPPGWDIEKIEYKSAGGSAGGSAG [r3_421_TrROS]	< -1 kcal/mol
SAGGSAGGSAGMKVEPKEDPVVDKSGKPKPITKIYVYVPEPLREEALKEAEENGEEVVLESAGGSAGGSAGG [r17_114_JUSTAS]	< -1 kcal/mol
SAGGSAGGSAGEIEIEFEPGEEFLDFIKNLPGPIESIEIEPIDPDKVRARLKLNIPEDLASAGGSAGGSAGG [r11_143_TrMRF]	< -1 kcal/mol
SAGGTELAERIRAMGGFEVVEIKEGEGKPKVTVRTPDPALAEELRAFLAADPRVESVELEELSPELKSAGGS [r16_671_JUSTAS]	< -1 kcal/mol
SAGGSAGGSAGGSHTFEFPGRKITIHRNPNGMYPIEIETNGKPREIMIPPNDLDKLLKASAGGSAGGSAGGS [r4_346_TrROS]	< -1 kcal/mol
SAGGPPKWKEVEFRMPPEDLKPDDIVDELQDDGIEIYNGDKPIDPGKSVDDLMQDNPNMPFTIKVWDSAGGS [r8_38_TrROS]	< -1 kcal/mol
SAGGSAGGSTIMIPPGMPPEEAKAWARDIAREQGFPPGRDLNVEVEPQPFDGGPWYTIDIEWDSAGGSAGGS [r12_252_TrROS]	< -1 kcal/mol
SSFKTKITILEERELEPVPDRNGTPNPVRLVTIAVTNLGPESVSPEVVEKVKKEVEEKFKEEGIPVEIKDES [r1_305_JUSTAS]	< -1 kcal/mol
SAGGSAGGVEVEADPEYEVEVFEDPETGAVVAIVKGPDEVERALRFIPETGEPVELPLEEFEPLSAGGSAGG [r6_304_TrMRF]	< -1 kcal/mol
SAGGSAGGSAGGPKEIPIKIKIYPPNGRKRERPVPLKSEEQALDQLQEAMPPGWFIEIWSAGGSAGGSAGGS [r10_145_TrROS]	< -1 kcal/mol
SMPYLVRVLAELPDGELLGEAEAEVLPGEELVFSDPLPVRVRAVIYDPETDEPREVEADGRVGVLVVPVESA [r9_272_TrMRF]	< -1 kcal/mol

Sequence	folding stability dG unfold
SAGGSAGGSGVKAILDALPPDYTVTVEEEPSGDSYTITVTHPDGASPTLRIDGGGRGELRKALSAGGSAGGS [r12_174_TrMRF]	-0.845 ± 0.74 kcal/mol
SAGGSAGGSAGGSSVEEEFLAYAKANPEPAPFEFEGPDEKVLLYFPPGGEIDPVSIELKSAGGSAGGSAGGS [r4_438_JUSTAS]	< -1 kcal/mol
SAGGSAGGSAGGFKIEGNPMPDDDGPYWHIEVTHWRYNGGGPRPRKRTIMIKDPEDAKEFSAGGSAGGSAGG [r7_896_TrROS]	< -1 kcal/mol
SAGGSAGGSPIMVRVERRDKDGKKKPVPTIPIPINNDDPEEALEWANEIAKKAGARDVRVEIWSAGGSAGGS [r12_569_TrROS]	< -1 kcal/mol
SAGMPELVEFPFPIPPEFPDIPPETLAKLIAEELNEEEFSVEVKSYDPEKPIVTLTVTKDGKPVAEFTDSAG [r5_80_TrMRF]	< -1 kcal/mol
SAGGSAGGSAGMEIKYVPEEGLIEVVEKTPKKLPLYSPRYGLEYETKVTTIPPGELDKPLSAGGSAGGSAGG [r11_531_JUSTAS]	< -1 kcal/mol
SAGGGVSYSFSSSGSGSTVTIYIPGSGKTLKRKVNPNDTITDIPSSAKPYKVVKEVNDEKPVEEELGSAGGS [r8_487_JUSTAS]	-0.855 ± 0.72 kcal/mol
SAGGSAGGSAGGSPPSLDYSVRTITTTVEETTFFPDNGTVRSRPVHVTTVVFEPLDSVESAGGSAGGSAGGS [r10_133_JUSTAS]	< -1 kcal/mol
SAGGGPEVVETVETPATETEVSRLPNGELLVTTTTQVTTFVRVGDELRRERVETVTTTEIVSPEELGSAGGS [r16_109_JUSTAS]	< -1 kcal/mol
SAGGSAGGSGPRAEELVVVNAPPGYRIPTPDGVPVTVPADAPNVLVRVTYGPGSSSVTVELVQSAGGSAGGS [r12_338_JUSTAS]	< -1 kcal/mol
SAGSFSVRLTLRAPDGTTETVSGPAAVAAAIAALPADETAESSVPGSSSSSTVTLPAGGTFSLSTLSSSSAG [r5_506_JUSTAS]	< -1 kcal/mol
SAGGSAGGSGFTVLEKDPSTGKVLVRLPPSLVEDVRRLPDVSPVAEEPDSVLLERTIPPGALASAGGSAGGS [r12_694_JUSTAS]	< -1 kcal/mol
SAGGPMVTWRIKFPGKKIEVMWNPDQMNVNIYDPDKPKEVPIPMPPGEPPTADDILDELKKDGFKIEPSAGG [r13_687_TrROS]	< -1 kcal/mol
SAGGSAGGSANPMPVRFQIEWKNPKDGKKQKIPITGTIPDGNGKKHSINELLKNLPGFKIKPSAGGSAGGSA [r18_267_TrROS]	< -1 kcal/mol
SAGGSAGGSAPLVENPVPLYVPEEEAVPLAEEIRKKLTKGGLKKIVFEVVPPEEAGIPPDEPLSAGGSAGGS [r12_93_JUSTAS]	< -1 kcal/mol
SAGGSAGGMPESAPPVPLPTSTVPLSEARAAGIEVPPGSERVIRTPSGVTYRISSATGTVTVVGSAGGSAGG [r6_275_JUSTAS]	< -1 kcal/mol
SAGGSAGGSVKDKNGTPYSVKEAKEKKLPNGTLVIELTLPESGKKITIPKKDIPKGISSEAKLKSAGGSAGG [r6_371_JUSTAS]	< -1 kcal/mol
SAGGSAGGSAGDIDIKVEYNKENGMYRVRASFPDGKEVPIWMPPGQTPEEAKDQAKELLKSAGGSAGGSAGG [r17_161_TrROS]	< -1 kcal/mol
SAGGRPYKVKIKNPGSGKPYEMPIVDVHESDDNFYIMIQNPNGKNREAPLNNIDKAEVDEEGGTITLPSAGG [r13_211_TrROS]	< -1 kcal/mol

Sequence	folding stability dG unfold
SAGGSMKSEKVFTDPGPFDGASVTVTATEDGTITITVVDPDGVPKTFTKKVEKGNPEEVVKEAIKESAGGSA [r2_298_TrMRF]	< -1 kcal/mol
SAGGLPSPDAVVEEESLELSFESSSEVVVTKKKTTKKVLPNGKVETETEEEEEVVKATKEEIEKLKKESAGG [r13_544_JUSTAS]	< -1 kcal/mol
SAGGDDFRVERFHPGEPREPREIDGDADDLLEELPPNDSYVHIEFKDDGGKKRIQMDTPEDLKNFIRDSAGG [r13_299_TrROS]	< -1 kcal/mol
SAGSMKLLILATSYPPDGSTTTKPIFGTEEDLKAAVEALPDGEKAATIIEVSEEGLKTIKTETRPPSLGSAG [r5_970_JUSTAS]	< -1 kcal/mol
SAGGSAGGSEGKEVVVVPAVGVPPEAVRRALEPLGIRTRVVPVPPVRPFRAADPGRVYYTPVGSAGGSAGGS [r12_80_TrMRF]	< -1 kcal/mol
SAGGSMPIDDIKEINIQYNPNTGTVMVPFRLPNGHEIMAEQKYDPEAGWPVIPIRVNDGKPIEIPISAGGSA [r2_490_TrROS]	< -1 kcal/mol
SAGGPPIMLRIKHPGPDQREKIKEIAQDYPIEPVNPTPGEHEFRFNGPEQVNRLQDIAEKNGWKIEISAGGS [r16_88_TrROS]	< -1 kcal/mol
SAGGSAGGSAGNEVRVDPDTNLLLVELSNGGRARVLLNEGVIYIEPEGTTFEDIEIEPAASAGGSAGGSAGG [r17_174_TrMRF]	< -1 kcal/mol
SAGGSAGGSAGGSGMMVPTTVTITVPAPDGTPVRTVTITTTSPTATLEEIKARVAPFLASAGGSAGGSAGGS [r4_375_JUSTAS]	< -1 kcal/mol
SARLFTIRIQGPPEQLKDALQEEFDMEVNIEPEPNGSTTITFELPPNNYDRFEEALEQLPGFPIEIEPVSAG [r14_521_TrROS]	< -1 kcal/mol
SAGGSAMKFYIKYDPKKEKTILILPENNPDLEGNDGSKVIKVENEEELIKLIEEAKKKGIKKIEIKSAGGSA [r15_1004_TrMRF]	< -1 kcal/mol
SAGGSAGGSVVPPEEEETVEKKETLTDPVTGKEYLSRRRVTYRPSKPEKVAEEEEIIPPDEPLSAGGSAGGS [r12_868_JUSTAS]	< -1 kcal/mol
SAGGSAGGSAGGSSAQIPFPDDGAWIMIDWDPEGRPKVKVHNPDNGEEIEFPPGAPIKISAGGSAGGSAGGS [r4_158_TrROS]	< -1 kcal/mol
SAGGSEPFTPEDLIRKALPVKPKAVVIPGPVSEEEIKALLDAGIPVVIIGKDGSRAVAVGDEVKPLSAGGSA [r2_33_TrMRF]	< -1 kcal/mol
SAGGSAGGSAGMKVREITGPPDDAKELLDENPDGITSIAIEPHPKNGQYRITFFDQGPPKSAGGSAGGSAGG [r17_79_TrROS]	< -1 kcal/mol
SAGGSAGGSAGGSENEPIPIQVKIWDPKDGEPVRTIPFNIWPGRSINELANKFPGVEIVSAGGSAGGSAGGS [r4_187_TrROS]	< -1 kcal/mol
SAGGDPDWKPIEFNLQRTVKPGDPEQIEEKAREFFEMFGIKSVTDVERERNPEGQQTVQASVKIRFPDSAGG [r13_222_TrROS]	< -1 kcal/mol
SAGGSAGGSAGGSNIPTDETVEKVVKIGPKPVTVTITAEPGKLLAKFPKEKKTVPISSLLSAGGSAGGSAGG [r7_37_JUSTAS]	< -1 kcal/mol
SAAEWLKEEGLKVKDVEVTKPRENPNGKREMEYRIKVRLPNKKVEVPIRMPSDSPETALNMAHNILRELSAG [r14_726_TrROS]	< -1 kcal/mol
